Measurements from patent publication US7026125, “Heterodimers of retinoid X receptors (RXRS) and other steroid hormone receptors” (Ligand Pharmaceuticals).

Key:
Conditions in all cases: label: 32P
TRα [1] = target: T1, TRα (UniProt P10827-2 P10827-2:1-410); test: EMSA; one complex
T1 sequence: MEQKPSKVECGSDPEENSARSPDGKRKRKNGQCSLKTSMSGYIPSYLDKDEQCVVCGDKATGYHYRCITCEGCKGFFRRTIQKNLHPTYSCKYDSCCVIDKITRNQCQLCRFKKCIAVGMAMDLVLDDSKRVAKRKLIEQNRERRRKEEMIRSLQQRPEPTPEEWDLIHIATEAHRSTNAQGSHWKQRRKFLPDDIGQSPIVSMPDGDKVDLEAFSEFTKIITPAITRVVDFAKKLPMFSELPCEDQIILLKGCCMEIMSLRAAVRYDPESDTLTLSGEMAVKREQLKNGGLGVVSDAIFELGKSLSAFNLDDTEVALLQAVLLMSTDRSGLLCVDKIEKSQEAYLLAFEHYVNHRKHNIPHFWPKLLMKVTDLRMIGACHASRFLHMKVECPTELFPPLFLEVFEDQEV
Method: (§1) In vitro translated receptor protein (1 to 5 μl depending on the translation efficiency) was incubated with the ^32P-labeled oligonucleotides in a 20-μl reaction mixture containing 10 mM hepes buffer, pH 7.9, 50 mM KCl, 1 mM DTT, 2.5 mM MgCl, 10% glycerol, and 1 μg of poly(dI-dC) at 25° C. for 20 minutes. In general, relative low receptor concentration was used to obtain the clear effect of heterodimer formation. The reaction mixture was then loaded on a 5% nondenaturing ployacrylamide gel containing 0.5×TBE (1×TBE=0.089 M Tris-borate, 0.089 M boric acid, and 0.002 M EDTA). To analyze the effect of RXRα or the nuclear proteins on receptor DNA binding activity, RXRα or the cell extracts were preincubated with receptor protein at room temperature for 10 minutes before performing the DNA binding assay. When antibody was used, 1 μl of the antiserum was incubated with the specific translation products at room temperature for 45 minutes before performing the experiments described above.

RXRα = RXRα (Homo sapiens, UniProt P19793 P19793:1-462); test: EMSA; at concentration used
RXRα, sequence (P19793 whole entry, one chain of several): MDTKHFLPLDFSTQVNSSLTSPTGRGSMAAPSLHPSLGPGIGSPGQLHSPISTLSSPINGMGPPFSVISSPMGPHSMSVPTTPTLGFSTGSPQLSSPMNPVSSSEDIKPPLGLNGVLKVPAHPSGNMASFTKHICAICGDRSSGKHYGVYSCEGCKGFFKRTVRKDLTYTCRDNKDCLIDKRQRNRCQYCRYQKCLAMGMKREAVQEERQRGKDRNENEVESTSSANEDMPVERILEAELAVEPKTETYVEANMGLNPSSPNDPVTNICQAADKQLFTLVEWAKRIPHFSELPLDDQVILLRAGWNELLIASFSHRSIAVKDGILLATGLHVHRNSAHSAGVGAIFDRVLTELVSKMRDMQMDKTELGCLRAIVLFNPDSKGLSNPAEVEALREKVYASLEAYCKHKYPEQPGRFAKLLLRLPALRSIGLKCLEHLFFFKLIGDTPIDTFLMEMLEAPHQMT
Method: (§2) (b) Gel retardation analysis of RXRα-TRα interaction using different DNA response elements. Gel retardation assays were carried out essentially as described in FIG. 1a but using different response elements. (−) represents the binding of unprogrammed reticulocyte lysate.
as §1

TRα/RXRα heterodimer [2] = target: T2, TRα/RXRα heterodimer (UniProt P10827-2;P19793 P10827-2:1-410,P19793:1-462); test: EMSA; strongly enhanced and upshifted versus TRα alone
T2 sequence (P19793 whole entry, one chain of several): as above
Method: as §1

TRα/RXRα heterodimer [3] = target: T2, TRα/RXRα heterodimer; test: EMSA; strong binding
Method: as §1

TRα [4] = target: T1, TRα; test: EMSA; no visible binding
Method: as §2, §1

TRα [5] = target: T1, TRα; test: EMSA; about as efficient as palindromic TRE
Method: as §1

TRα/RXRα heterodimer [6] = target: T2, TRα/RXRα heterodimer; test: EMSA; TRα binding abolished by RXRα
Method: as §1

TRα [7] = target: T1, TRα; test: EMSA
Method: as §1

B1: TRE/OP (inverted repeat, 4 bp spacer) (dsDNA)
DNA 1: GATCCTGACCTGAGATCTCAGGTCAGGATC
DNA 2: GATCCTGACCTGAGATCTCAGGTCAGGATC
- binding result (TRα [1]): binds
- binding result (RXRα): no binding
- binding result (TRα/RXRα heterodimer [2]): binds

B2: βRARE (dsDNA)
DNA 1: GATCAGGGTTCAGGCAAAGTTCACGATC
DNA 2: GATCGTGAACTTTGCCTGAACCCTGATC
- binding result (TRα/RXRα heterodimer [3]): binds
- binding result (TRα [4]): no binding
- binding result (RXRα): no binding

B3: TRE/half (dsDNA)
DNA 1: GATCTCAGGTCAGATC
DNA 2: GATCTGACCTGAGATC
- binding result (TRα [5]): binds
- binding result (RXRα): no binding
- binding result (TRα/RXRα heterodimer [6]): no binding

B4: ERE palindrome (dsDNA)
DNA 1: GATCTCAGGTCACTGTGACCTGAGATC
DNA 2: GATCTCAGGTCACAGTGACCTGAGATC
- binding result (TRα [7]): binds
- binding result (RXRα): no binding
- binding result (TRα/RXRα heterodimer [6]): no binding
